Data taken from publication PMC7311520, “β-carboline chemical signals induce reveromycin production through a LuxR family regulator in Streptomyces sp. SN-593” (Scientific Reports, 2020).
Values belong to the molecule of their own block, whether it stands above or below them.

Tests used:
[1] = molecular target: T1, RevU (LuxR family transcriptional regulator) (Actinacidiphila reveromycinica, UniProt G1UDV5); test: SPR (Biacore T200, His6-RevU immobilized on NTA chip); supported by BR-1 bead pull-down with free BR-1 competition; assay type: binding
T1 construct: purified His6-tagged RevU expressed in E. coli from a codon-optimized synthetic gene

[2] = molecular target: T2, RevU (LuxR family regulator), His6-tagged (Streptomyces sp. SN-593 (S. …, UniProt G1UDV5)); test: SPR; compound 3 (tetrahydro BR-1), 125 nM RevU; not enhanced; SPR: 10 mM HEPES pH 7.4, 3 mM EDTA, 150 mM NaCl, 0.05% Tween-20, 25 C, RevU 3.9-250 nM; BLI: 10 mM HEPES pH 7.3, 3 mM EDTA, 150 mM NaCl, 0.05% Tween-20, room temperature; conditions: protein: recombinant; tags: His6 (pColdI); chain copies: 2; label: 5'-biotin; blunt
T2 sequence: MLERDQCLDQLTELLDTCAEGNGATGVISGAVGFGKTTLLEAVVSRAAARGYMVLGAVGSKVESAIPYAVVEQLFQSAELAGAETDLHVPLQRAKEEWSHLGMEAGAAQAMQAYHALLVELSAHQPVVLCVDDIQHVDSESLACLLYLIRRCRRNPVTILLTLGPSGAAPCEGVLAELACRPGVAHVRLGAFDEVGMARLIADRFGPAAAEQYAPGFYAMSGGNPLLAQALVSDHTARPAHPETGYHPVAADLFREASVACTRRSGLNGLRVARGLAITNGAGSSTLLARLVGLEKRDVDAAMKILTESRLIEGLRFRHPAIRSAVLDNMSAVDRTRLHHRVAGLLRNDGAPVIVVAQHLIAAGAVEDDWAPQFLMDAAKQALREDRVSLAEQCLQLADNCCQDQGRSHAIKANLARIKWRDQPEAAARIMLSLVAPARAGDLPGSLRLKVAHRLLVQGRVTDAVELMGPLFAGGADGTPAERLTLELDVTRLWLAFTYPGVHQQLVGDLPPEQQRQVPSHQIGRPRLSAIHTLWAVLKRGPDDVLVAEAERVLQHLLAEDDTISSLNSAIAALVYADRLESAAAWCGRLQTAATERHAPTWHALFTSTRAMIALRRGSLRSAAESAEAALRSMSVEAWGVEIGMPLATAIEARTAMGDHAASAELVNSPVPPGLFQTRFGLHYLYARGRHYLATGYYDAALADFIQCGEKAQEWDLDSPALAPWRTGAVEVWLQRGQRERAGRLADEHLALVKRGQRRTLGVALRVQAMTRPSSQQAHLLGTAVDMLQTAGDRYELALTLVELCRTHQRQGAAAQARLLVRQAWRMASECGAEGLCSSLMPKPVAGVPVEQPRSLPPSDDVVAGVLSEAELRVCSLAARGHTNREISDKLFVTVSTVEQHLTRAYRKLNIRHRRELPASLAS

[3] = molecular target: T2, RevU (LuxR family regulator), …; test: SPR; no BR-1; SPR: 10 mM HEPES pH 7.4, 3 mM EDTA, 150 mM NaCl, 0.05% Tween-20, 25 C, RevU 3.9-250 nM; BLI: 10 mM HEPES pH 7.3, 3 mM EDTA, 150 mM NaCl, 0.05% Tween-20, room temperature; conditions: protein: recombinant; tags: His6 (pColdI); chain copies: 2; label: 5'-biotin; blunt

Kd [1]: 1310 nM
Molecule: NC(=O)c1cc2c([nH]c3ccccc32)c(-c2ccccc2)n1 [compound 1, BR-1]

B1: Fragment 1-1 (dsDNA)
DNA 1: ACGCCGCAACGACCAACAGAGG
DNA 2: CCTCTGTTGGTCGTTGCGGCGT
binding result [2]: binds

B2: Fragment 4 (dsDNA)
DNA 1: GATTATGCGTCGCATTCGGTGTTTGTGGAGTTGATCGAGGATCGGGTTCT
DNA 2: AGAACCCGATCCTCGATCAACTCCACAAACACCGAATGCGACGCATAATC
binding result [3]: binds
